These results are taken from US20090203616A1.

No end group written: not given here.

In this test the target is α9α10 subtype of the nicotinic acetylcholine receptor (nAChR) (rat) (UniProt P43144). Kind of test: cell-based or functional assay.
Sequence of α9α10 subtype of the nicotinic acetylcholine receptor (nAChR) (rat) (P43144 26-479, chain 1 of 2): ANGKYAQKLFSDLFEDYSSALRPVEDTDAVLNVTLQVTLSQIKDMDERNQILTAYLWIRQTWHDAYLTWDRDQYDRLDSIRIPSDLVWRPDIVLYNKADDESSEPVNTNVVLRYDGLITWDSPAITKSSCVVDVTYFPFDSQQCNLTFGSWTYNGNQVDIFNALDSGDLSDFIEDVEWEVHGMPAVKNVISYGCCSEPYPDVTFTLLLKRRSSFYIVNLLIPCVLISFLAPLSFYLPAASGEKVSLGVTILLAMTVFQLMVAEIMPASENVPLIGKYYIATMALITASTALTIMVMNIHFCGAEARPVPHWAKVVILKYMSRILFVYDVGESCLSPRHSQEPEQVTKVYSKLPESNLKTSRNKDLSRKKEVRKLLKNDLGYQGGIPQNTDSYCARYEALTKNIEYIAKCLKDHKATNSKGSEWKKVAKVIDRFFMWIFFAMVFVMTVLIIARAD
Sequence of α9α10 subtype of the nicotinic acetylcholine receptor (nAChR) (rat) (Q9JLB5 25-447, chain 2 of 2, further chain): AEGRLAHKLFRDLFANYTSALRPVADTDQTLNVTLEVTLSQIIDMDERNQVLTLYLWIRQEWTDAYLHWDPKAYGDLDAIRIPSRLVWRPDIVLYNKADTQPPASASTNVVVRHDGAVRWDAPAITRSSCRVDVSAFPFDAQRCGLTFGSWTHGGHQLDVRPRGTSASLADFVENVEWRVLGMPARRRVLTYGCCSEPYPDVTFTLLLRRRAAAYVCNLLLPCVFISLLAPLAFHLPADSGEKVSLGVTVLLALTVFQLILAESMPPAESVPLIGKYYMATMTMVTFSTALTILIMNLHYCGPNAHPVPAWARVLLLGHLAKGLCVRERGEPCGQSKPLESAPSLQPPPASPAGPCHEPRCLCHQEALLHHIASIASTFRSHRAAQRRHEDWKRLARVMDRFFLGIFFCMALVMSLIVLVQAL

Turning to GCCSDPRCRYRC (not fully specified (C-terminus); ends and bridges not checked) [RgIA-Cys-amide], the IC50 (activity on α9α10 nAChR, oocytes as in Example 1) turned out to be 7.8 nM.
